# Measurements from PMC4763187.
# B1: MtAAE3 (Medicago truncatula Acyl Activating Enzyme 3; oxalyl-CoA synthetase) (Medicago truncatula) (protein)
# chain: ETATTLTGLLQSVAEKFPSRRAISVAGKFDLTHSQLHELVESAANHLISAGIKPNDVVALTFPNTIEYVIMFLAVIRVRATAAPLNAAYTSEEFEFYLSDSESKLLLTPLEGNNPAQTAATKLNIPLGSVCFNKTEEETKLSISLNQTESANSVSELINEPSDVALFLHTSGTTSRPKGVPLSQHNLVSSVRNIESVYRLSELDSTVIVLPLFHVHGLIAGLLSSLGAGGAVALPAAGRFSASTFWKDMIQYNATWYTAVPTIHQIILDRHQSNPEPVYPKLRFIRSCSASLAPVILGRLEEAFGAPVLEAYAMTEATHLMCSNPLPEDGPHKAGSVGKPVGQEMAILDESGRVLEADVNGEVCIKGENVTKGYKNNEEANKSAFLFGWFHTGDIGYFDSDGYLHLVGRIKELINRGGEKISPIEVDAVLLGHQDVAQAVAFGVPDQKYGEEIHCAIIPREGSNIDAEEVLKYCKTNLTSFKVPKKVFITDSLPKTATGKILRRLVAEHFVSQA
# Substrate: O=C(O)C(=O)O
# Assay: purified protein
# Conditions: pH 8.0, 5 mM ATP, 0.5 mM CoA, 10 mM MgCl2, 2 mM DTT, oxalate up to 400 μM
protein,measurement,value
B1,Km,81.0 ± 8.1 µM
